Assay [1] concerns the target T1, poly-histidine tagged HPTP-β extracellular domain (ECD) 1/2 (human, UniProt P23467 23-730, limits assumed).
T1 construct: domain: extracellular domain (ECD) 1/2; Captured on the Biacore chip through goat anti-His antibody; also called His-tagged ligand HPTP-β 1/2 ECD; not shown: poly-histidine tag
T1 sequence (looked up): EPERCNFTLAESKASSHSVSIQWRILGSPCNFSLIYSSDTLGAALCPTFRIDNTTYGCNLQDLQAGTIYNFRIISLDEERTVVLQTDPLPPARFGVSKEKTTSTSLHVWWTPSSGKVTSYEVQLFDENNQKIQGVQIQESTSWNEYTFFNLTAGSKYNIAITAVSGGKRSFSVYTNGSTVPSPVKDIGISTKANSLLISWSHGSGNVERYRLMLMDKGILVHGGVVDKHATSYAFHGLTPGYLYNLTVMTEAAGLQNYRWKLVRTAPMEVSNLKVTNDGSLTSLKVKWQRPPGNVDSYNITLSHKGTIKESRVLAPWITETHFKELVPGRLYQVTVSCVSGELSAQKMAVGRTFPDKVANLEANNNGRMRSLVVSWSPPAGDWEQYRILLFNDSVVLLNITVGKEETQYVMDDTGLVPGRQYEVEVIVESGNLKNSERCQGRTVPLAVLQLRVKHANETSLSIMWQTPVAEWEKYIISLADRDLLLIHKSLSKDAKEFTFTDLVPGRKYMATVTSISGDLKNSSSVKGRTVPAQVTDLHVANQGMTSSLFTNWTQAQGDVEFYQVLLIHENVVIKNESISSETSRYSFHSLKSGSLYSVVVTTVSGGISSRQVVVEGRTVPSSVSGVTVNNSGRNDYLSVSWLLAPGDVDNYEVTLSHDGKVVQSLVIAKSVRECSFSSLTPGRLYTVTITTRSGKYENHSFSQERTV
The assay can be described thus: Biacore SPR, scouting at 10 nM analyte; His-tagged HPTP-β 1/2 ECD captured by anti-His, antibody as analyte. As to the method: (§1) The assay buffer contained 10 mM HEPES buffer (pH 7.4), 150 mM NaCl, 3 mM EDTA, and 0.05% P20 (polyoxyethylenesorbitan). […] The conjugation buffer contained 10 mM sodium acetate buffer (pH 5). A flow rate of 5 μL/minute was used for capturing ligand. A flow rate of 30 μL/minute was used for kinetic analysis.
(§2) For analysis of binding of antibodies to HPTP-β, poly-histidine tagged HPTP-β extracellular domain (ECD) 1/2 was immobilized on a chip surface via anti-His antibodies. Goat anti-His antibody was first immobilized on the surface of the chip by direct immobilization using EDC/NHS (N-ethyl-N′-(3-dimethyl aminopropyl carbodiimide)/N-hydroxy succinamide) coupling chemistry on flow cell 2 of the CM5 (Carboxymethylated dextran coated) chip. Unoccupied sites were blocked with 1M ethanolamine. The His-tagged ligand HPTP-β 1/2 ECD was captured at a response unit (RU) of 50. The analyte (antibody) was flowed over the chip at a single analyte concentration at a time. The binding of analyte to the ligand was monitored in real time to obtain on (kₐ) and off (kd) rates. The equilibrium constant (KD) was calculated from the observed kₐ and kd.
(§3) Chi square analysis was carried out between the actual sensorgram and the sensorgram generated from the BIAnalysis software to confirm the accuracy of the analysis; values of 1-2 were considered accurate and below 1 highly accurate.

Assay [2] has as its target T2, VEGF (UniProt P15692-4 27-191, limits assumed).
T2 construct: also called vascular endothelial growth factor
Nature of the assay: Biacore SPR, scouting at 10 nM analyte; antibody immobilised on CM5 chip, VEGF as analyte. As to the method:
as §1
(§4) For analysis of binding of the antibodies to VEGF, the antibodies were immobilized on the surface of the chip by direct immobilization using EDC/NHS coupling chemistry on flow cell 2 of the CM5 chip. Unoccupied sites were blocked with 1M ethanolamine. The analyte (VEGF) was flowed over the chip at a single analyte concentration at a time. The binding of analyte to the ligand was monitored in real time to obtain on (kₐ) and off (kd) rates. The equilibrium constant (KD) was calculated from the observed kₐ and kd.
as §3

Assay [3] deals with T1, poly-histidine tagged HPTP-β …. Nature of the assay: Biacore SPR, full kinetics at 0-10 nM analyte; His-tagged HPTP-β 1/2 ECD captured by anti-His, antibody as analyte. The method, then: as §1, §2
(§5) Chi square analysis was carried out between the actual sensorgram and the sensorgram generated from the BNAnalysis software to confirm the accuracy of the analysis; values of 1-2 were considered accurate and below 1 highly accurate.

Assay [4] deals with T2, VEGF. Nature of the assay: Biacore SPR, full kinetics at 0-10 nM analyte; antibody immobilised on CM5 chip, VEGF as analyte. The method, then:
as §1, §4, §5

The target in assay [5] is T1, poly-histidine tagged HPTP-β …. Nature of the assay: Biacore SPR, scouting at 10 nM analyte; His-tagged HPTP-β 1/2 ECD captured by anti-His, antibody as analyte; scouting experiment at a single ligand concentration (Table 46), not full kinetics.
Source text: as §2, §3

T2 sequence (P15692 other isoform, or with tags, fused parts or gaps limits assumed): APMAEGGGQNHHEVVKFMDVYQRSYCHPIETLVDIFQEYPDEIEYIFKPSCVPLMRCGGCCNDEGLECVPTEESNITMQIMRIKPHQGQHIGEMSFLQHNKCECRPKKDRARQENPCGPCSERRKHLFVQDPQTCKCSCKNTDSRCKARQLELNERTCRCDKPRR

B1: HC2:LC1-ABI (bispecific antibody, human IgG4 S228P, kappa)
heavy: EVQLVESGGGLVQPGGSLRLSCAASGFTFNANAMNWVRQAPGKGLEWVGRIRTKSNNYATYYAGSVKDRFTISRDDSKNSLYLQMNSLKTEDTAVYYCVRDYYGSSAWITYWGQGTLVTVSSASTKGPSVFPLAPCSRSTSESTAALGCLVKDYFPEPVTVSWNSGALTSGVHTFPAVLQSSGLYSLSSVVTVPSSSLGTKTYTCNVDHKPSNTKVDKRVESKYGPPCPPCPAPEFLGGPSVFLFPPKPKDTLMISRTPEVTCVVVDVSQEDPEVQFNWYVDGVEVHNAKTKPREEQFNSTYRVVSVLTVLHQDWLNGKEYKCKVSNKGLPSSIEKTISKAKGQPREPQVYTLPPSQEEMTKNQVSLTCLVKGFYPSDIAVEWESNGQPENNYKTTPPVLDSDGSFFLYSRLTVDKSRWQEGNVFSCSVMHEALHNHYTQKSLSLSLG
light: DVVMTQSPSFLSASVGDRVTITCKASQHVGTAVAWYQQRPGKAPKLLIYWASTRHTGVPSRFSGSGSGTEFTLTISSLQPEDFATYFCQQYSSYPFTFGGGTKLEIKRTVAAPSVFIFPPSDEQLKSGTASVVCLLNNFYPREAKVQWKVDNALQSGNSQESVTEQDSKDSTYSLSSTLTLSKADYEKHKVYACEVTHQGLSSPVTKSFNRGECGGGGSDLDKKLLEAARAGQDDEVRILMANGADVNARDSTGWTPLHLAAPWGHPEIVEVLLKNGADVNAADFQGWTPLHLAAAVGHLEIVEVLLKYGADVNAQDKFGKTAFDISIDNGNEDLAEILQKAA
notes: The expressed entry minus its signal peptide is used here
What is called Kd is a measure of binding affinity in units of concentration. In the case of B1, the Kd amounted to 61 pM in assay [1] and 519 pM with VEGF [2].

B2: HC2-ABI:LC1-ABI (bispecific antibody, human IgG4 S228P, kappa)
heavy: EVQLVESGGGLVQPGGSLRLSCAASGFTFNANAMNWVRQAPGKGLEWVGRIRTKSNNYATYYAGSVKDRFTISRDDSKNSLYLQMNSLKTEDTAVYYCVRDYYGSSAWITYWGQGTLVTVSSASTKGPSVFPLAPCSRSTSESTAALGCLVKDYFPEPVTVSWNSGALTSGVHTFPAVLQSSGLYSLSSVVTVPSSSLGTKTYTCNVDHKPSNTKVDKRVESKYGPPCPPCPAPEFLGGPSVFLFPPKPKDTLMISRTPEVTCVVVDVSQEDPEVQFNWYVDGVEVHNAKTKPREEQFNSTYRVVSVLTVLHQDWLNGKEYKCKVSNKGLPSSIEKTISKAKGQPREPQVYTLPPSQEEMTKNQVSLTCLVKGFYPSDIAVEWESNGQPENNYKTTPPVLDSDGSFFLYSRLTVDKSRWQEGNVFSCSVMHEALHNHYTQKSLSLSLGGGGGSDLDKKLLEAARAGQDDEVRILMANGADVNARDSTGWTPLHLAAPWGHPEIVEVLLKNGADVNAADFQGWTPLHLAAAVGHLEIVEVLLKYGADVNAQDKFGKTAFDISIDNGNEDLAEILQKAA
light: DVVMTQSPSFLSASVGDRVTITCKASQHVGTAVAWYQQRPGKAPKLLIYWASTRHTGVPSRFSGSGSGTEFTLTISSLQPEDFATYFCQQYSSYPFTFGGGTKLEIKRTVAAPSVFIFPPSDEQLKSGTASVVCLLNNFYPREAKVQWKVDNALQSGNSQESVTEQDSKDSTYSLSSTLTLSKADYEKHKVYACEVTHQGLSSPVTKSFNRGECGGGGSDLDKKLLEAARAGQDDEVRILMANGADVNARDSTGWTPLHLAAPWGHPEIVEVLLKNGADVNAADFQGWTPLHLAAAVGHLEIVEVLLKYGADVNAQDKFGKTAFDISIDNGNEDLAEILQKAA
On to B2, for which the Kd in assay [1] stood at 205 pM; in the assay with VEGF [2], 680 pM.

B3: HC2:LC1-BRO (bispecific antibody, human IgG4 S228P, kappa)
heavy: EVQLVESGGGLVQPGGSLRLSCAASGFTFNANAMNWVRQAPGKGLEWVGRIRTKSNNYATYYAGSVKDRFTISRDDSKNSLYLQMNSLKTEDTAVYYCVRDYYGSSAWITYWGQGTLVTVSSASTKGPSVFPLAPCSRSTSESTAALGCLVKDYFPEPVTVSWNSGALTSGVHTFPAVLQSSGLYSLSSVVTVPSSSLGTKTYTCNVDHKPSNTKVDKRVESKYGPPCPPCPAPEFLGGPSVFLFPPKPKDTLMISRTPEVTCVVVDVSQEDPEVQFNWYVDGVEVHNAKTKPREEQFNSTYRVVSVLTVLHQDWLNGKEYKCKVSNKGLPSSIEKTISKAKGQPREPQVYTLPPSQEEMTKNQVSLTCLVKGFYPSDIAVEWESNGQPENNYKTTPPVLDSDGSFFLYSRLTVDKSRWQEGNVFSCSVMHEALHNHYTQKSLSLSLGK
light: DVVMTQSPSFLSASVGDRVTITCKASQHVGTAVAWYQQRPGKAPKLLIYWASTRHTGVPSRFSGSGSGTEFTLTISSLQPEDFATYFCQQYSSYPFTFGGGTKLEIKRTVAAPSVFIFPPSDEQLKSGTASVVCLLNNFYPREAKVQWKVDNALQSGNSQESVTEQDSKDSTYSLSSTLTLSKADYEKHKVYACEVTHQGLSSPVTKSFNRGECGGGGSEIVMTQSPSTLSASVGDRVIITCQASEIIHSWLAWYQQKPGKAPKLLIYLASTLASGVPSRFSGSGSGAEFTLTISSLQPDDFATYYCQNVYLASTNGANFGQGTKLTVLGGGGGSGGGGSGGGGSGGGGSEVQLVESGGGLVQPGGSLRLSCTASGFSLTDYYYMTWVRQAPGKGLEWVGFIDPDDDPYYATWAKGRFTISRDNSKNTLYLQMNSLRAEDTAVYYCAGGDHNSGWGLDIWGQGTLVTVSS
As for B3, the results for the Kd (in assay [1]; with VEGF [2]) were 309 pM and 0.0351 pM, respectively.

B4: HC2-BRO:LC1-BRO (bispecific antibody, human IgG4 S228P, kappa)
heavy: not shown
light: DVVMTQSPSFLSASVGDRVTITCKASQHVGTAVAWYQQRPGKAPKLLIYWASTRHTGVPSRFSGSGSGTEFTLTISSLQPEDFATYFCQQYSSYPFTFGGGTKLEIKRTVAAPSVFIFPPSDEQLKSGTASVVCLLNNFYPREAKVQWKVDNALQSGNSQESVTEQDSKDSTYSLSSTLTLSKADYEKHKVYACEVTHQGLSSPVTKSFNRGECGGGGSEIVMTQSPSTLSASVGDRVIITCQASEIIHSWLAWYQQKPGKAPKLLIYLASTLASGVPSRFSGSGSGAEFTLTISSLQPDDFATYYCQNVYLASTNGANFGQGTKLTVLGGGGGSGGGGSGGGGSGGGGSEVQLVESGGGLVQPGGSLRLSCTASGFSLTDYYYMTWVRQAPGKGLEWVGFIDPDDDPYYATWAKGRFTISRDNSKNTLYLQMNSLRAEDTAVYYCAGGDHNSGWGLDIWGQGTLVTVSS
In the case of B4, the Kd is 3.5 pM in assay [1] and 1.79 pM with VEGF [2].

B5: HC2-AFL:LC1 (bispecific antibody, human IgG4 S228P, kappa)
heavy: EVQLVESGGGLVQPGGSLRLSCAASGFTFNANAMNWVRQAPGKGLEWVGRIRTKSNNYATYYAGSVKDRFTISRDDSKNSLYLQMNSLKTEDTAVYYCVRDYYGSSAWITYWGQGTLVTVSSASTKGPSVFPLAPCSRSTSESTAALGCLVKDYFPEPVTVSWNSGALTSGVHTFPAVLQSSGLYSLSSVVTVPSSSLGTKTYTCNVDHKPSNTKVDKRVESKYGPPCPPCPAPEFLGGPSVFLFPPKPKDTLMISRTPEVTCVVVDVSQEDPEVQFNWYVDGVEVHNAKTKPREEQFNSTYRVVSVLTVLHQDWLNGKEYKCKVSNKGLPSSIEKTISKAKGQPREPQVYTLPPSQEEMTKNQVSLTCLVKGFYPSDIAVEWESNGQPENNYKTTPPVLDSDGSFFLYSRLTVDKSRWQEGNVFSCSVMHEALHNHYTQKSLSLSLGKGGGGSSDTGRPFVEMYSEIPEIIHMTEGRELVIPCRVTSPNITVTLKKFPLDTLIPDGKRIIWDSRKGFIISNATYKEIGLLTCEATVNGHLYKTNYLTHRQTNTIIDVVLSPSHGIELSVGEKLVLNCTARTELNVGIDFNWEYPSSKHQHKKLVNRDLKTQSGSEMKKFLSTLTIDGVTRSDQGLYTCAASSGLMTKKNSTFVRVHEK
light: DVVMTQSPSFLSASVGDRVTITCKASQHVGTAVAWYQQRPGKAPKLLIYWASTRHTGVPSRFSGSGSGTEFTLTISSLQPEDFATYFCQQYSSYPFTFGGGTKLEIKRTVAAPSVFIFPPSDEQLKSGTASVVCLLNNFYPREAKVQWKVDNALQSGNSQESVTEQDSKDSTYSLSSTLTLSKADYEKHKVYACEVTHQGLSSPVTKSFNRGEC
Turning to B5, the Kd in assay [1] was 320 pM; in assay [3], 219 pM; in the assay with VEGF [2], 350 pM; with VEGF [4], 46.3 pM.

B6: HC2-ABI:LC1 (bispecific antibody, human IgG4 S228P, kappa)
heavy: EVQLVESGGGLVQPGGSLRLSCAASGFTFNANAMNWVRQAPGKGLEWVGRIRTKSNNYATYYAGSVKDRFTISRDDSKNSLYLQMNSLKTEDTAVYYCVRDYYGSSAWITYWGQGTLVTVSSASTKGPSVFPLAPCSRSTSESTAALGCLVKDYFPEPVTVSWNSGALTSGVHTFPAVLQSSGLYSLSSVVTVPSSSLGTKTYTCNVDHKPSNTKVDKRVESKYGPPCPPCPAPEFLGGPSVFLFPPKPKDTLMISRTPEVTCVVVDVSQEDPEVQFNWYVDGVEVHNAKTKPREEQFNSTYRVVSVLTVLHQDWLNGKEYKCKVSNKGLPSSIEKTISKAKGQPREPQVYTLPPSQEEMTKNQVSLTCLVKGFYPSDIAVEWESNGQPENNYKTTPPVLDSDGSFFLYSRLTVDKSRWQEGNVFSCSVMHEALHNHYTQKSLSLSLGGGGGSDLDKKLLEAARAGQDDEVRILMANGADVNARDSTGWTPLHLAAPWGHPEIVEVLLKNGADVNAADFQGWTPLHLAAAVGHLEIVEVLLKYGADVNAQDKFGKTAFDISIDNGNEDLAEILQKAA
light: DVVMTQSPSFLSASVGDRVTITCKASQHVGTAVAWYQQRPGKAPKLLIYWASTRHTGVPSRFSGSGSGTEFTLTISSLQPEDFATYFCQQYSSYPFTFGGGTKLEIKRTVAAPSVFIFPPSDEQLKSGTASVVCLLNNFYPREAKVQWKVDNALQSGNSQESVTEQDSKDSTYSLSSTLTLSKADYEKHKVYACEVTHQGLSSPVTKSFNRGEC
As for B6, the Kd stood at 122 pM in assay [1], 1.03 pM in assay [3], 0.11 pM with VEGF [2] and 0.04 pM in the assay with VEGF [4].

B7: HC2-RAN:LC1 (bispecific antibody, human IgG4 S228P, kappa)
heavy: not shown
light: DVVMTQSPSFLSASVGDRVTITCKASQHVGTAVAWYQQRPGKAPKLLIYWASTRHTGVPSRFSGSGSGTEFTLTISSLQPEDFATYFCQQYSSYPFTFGGGTKLEIKRTVAAPSVFIFPPSDEQLKSGTASVVCLLNNFYPREAKVQWKVDNALQSGNSQESVTEQDSKDSTYSLSSTLTLSKADYEKHKVYACEVTHQGLSSPVTKSFNRGEC
notes: also called HC2-RBZ:LC1; tetravalent bispecific antibody with ranibizumab-derived scFv on the heavy chain C-termini
As for B7, in assay [5], binding was characterised by a dissociation constant (Kd) of 0.586 pM.

B8: HC2-BRO:LC1 (bispecific antibody, human IgG4 S228P, kappa)
heavy: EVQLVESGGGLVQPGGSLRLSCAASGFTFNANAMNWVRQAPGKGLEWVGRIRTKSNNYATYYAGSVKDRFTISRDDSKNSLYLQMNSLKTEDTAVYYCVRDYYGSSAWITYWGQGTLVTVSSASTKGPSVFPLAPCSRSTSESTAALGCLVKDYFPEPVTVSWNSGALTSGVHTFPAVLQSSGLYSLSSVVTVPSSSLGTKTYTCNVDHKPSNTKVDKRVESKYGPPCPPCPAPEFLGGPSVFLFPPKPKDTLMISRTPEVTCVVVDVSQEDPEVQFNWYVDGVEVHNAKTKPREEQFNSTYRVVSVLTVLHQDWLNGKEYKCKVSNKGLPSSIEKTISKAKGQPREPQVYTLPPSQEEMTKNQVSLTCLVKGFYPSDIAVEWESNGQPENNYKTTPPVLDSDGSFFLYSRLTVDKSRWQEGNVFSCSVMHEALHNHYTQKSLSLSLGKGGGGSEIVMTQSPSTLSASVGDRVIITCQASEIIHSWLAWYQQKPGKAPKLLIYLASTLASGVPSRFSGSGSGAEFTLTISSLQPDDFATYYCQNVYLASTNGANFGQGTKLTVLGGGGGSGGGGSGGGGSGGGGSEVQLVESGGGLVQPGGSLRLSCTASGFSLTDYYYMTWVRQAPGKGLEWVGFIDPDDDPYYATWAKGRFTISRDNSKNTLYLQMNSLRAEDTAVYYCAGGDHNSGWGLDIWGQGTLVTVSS
light: DVVMTQSPSFLSASVGDRVTITCKASQHVGTAVAWYQQRPGKAPKLLIYWASTRHTGVPSRFSGSGSGTEFTLTISSLQPEDFATYFCQQYSSYPFTFGGGTKLEIKRTVAAPSVFIFPPSDEQLKSGTASVVCLLNNFYPREAKVQWKVDNALQSGNSQESVTEQDSKDSTYSLSSTLTLSKADYEKHKVYACEVTHQGLSSPVTKSFNRGEC
As for B8, the Kd in assay [1] stood at 325 pM; in assay [3], 154 pM; with VEGF [2], 0.112 pM; in the assay with VEGF [4], 0.218 pM.

B9: HC2:LC1-AFL (bispecific antibody, human IgG4 S228P, kappa)
heavy: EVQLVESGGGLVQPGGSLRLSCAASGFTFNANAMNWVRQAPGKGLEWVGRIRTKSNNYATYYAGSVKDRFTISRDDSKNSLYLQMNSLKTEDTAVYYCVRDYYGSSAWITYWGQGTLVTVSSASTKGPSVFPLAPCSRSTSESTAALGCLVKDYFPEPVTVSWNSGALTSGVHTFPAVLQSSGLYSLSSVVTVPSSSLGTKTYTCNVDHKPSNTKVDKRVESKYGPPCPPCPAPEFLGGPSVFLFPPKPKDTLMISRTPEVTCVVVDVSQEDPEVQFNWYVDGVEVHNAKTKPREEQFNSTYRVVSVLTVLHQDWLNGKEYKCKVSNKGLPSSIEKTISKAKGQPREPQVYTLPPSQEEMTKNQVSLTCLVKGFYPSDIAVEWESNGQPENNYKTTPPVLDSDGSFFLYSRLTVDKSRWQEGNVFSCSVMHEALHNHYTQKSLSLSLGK
light: DVVMTQSPSFLSASVGDRVTITCKASQHVGTAVAWYQQRPGKAPKLLIYWASTRHTGVPSRFSGSGSGTEFTLTISSLQPEDFATYFCQQYSSYPFTFGGGTKLEIKRTVAAPSVFIFPPSDEQLKSGTASVVCLLNNFYPREAKVQWKVDNALQSGNSQESVTEQDSKDSTYSLSSTLTLSKADYEKHKVYACEVTHQGLSSPVTKSFNRGECGGGGSSDTGRPFVEMYSEIPEIIHMTEGRELVIPCRVTSPNITVTLKKFPLDTLIPDGKRIIWDSRKGFIISNATYKEIGLLTCEATVNGHLYKTNYLTHRQTNTIIDVVLSPSHGIELSVGEKLVLNCTARTELNVGIDFNWEYPSSKHQHKKLVNRDLKTQSGSEMKKFLSTLTIDGVTRSDQGLYTCAASSGLMTKKNSTFVRVHEK
Take B9: the figures for the equilibrium dissociation constant (Kd) (in assay [1]; in the assay with VEGF [2]) were 467 pM and 825 pM, respectively.

B10: HC2-AFL:LC1-AFL (bispecific antibody, human IgG4 S228P, kappa)
heavy: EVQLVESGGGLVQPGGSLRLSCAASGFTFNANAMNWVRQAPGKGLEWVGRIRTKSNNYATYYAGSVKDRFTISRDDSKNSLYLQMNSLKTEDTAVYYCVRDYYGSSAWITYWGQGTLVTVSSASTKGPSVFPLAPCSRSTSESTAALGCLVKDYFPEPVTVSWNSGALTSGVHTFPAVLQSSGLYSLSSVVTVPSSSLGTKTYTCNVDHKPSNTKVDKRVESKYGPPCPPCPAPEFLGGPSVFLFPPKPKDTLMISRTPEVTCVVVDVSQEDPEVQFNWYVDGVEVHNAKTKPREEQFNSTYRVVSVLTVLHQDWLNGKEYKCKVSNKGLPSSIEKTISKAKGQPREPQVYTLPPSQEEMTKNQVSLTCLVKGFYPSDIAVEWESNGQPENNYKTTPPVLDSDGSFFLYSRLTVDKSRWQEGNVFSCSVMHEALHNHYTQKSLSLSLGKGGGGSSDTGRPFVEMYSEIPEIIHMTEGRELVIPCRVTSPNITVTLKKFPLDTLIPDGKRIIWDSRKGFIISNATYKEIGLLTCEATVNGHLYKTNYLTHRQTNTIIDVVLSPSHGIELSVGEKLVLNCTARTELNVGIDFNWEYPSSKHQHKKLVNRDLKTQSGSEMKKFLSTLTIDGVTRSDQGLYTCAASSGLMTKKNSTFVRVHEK
light: DVVMTQSPSFLSASVGDRVTITCKASQHVGTAVAWYQQRPGKAPKLLIYWASTRHTGVPSRFSGSGSGTEFTLTISSLQPEDFATYFCQQYSSYPFTFGGGTKLEIKRTVAAPSVFIFPPSDEQLKSGTASVVCLLNNFYPREAKVQWKVDNALQSGNSQESVTEQDSKDSTYSLSSTLTLSKADYEKHKVYACEVTHQGLSSPVTKSFNRGECGGGGSSDTGRPFVEMYSEIPEIIHMTEGRELVIPCRVTSPNITVTLKKFPLDTLIPDGKRIIWDSRKGFIISNATYKEIGLLTCEATVNGHLYKTNYLTHRQTNTIIDVVLSPSHGIELSVGEKLVLNCTARTELNVGIDFNWEYPSSKHQHKKLVNRDLKTQSGSEMKKFLSTLTIDGVTRSDQGLYTCAASSGLMTKKNSTFVRVHEK
With B10, the Kd in assay [1] was found to be 69.4 pM; in the assay with VEGF [2] it was 557 pM.
